# According to the Immune Epitope Database (IEDB):
# What was measured:
# Experiment in all cases: IEDB peptide-MHC binding, purified MHC/competitive/radioactivity; filed as Kd, often an IC50 or EC50 that approximates it; ≥ and ≤ were set here for values at or beyond the usual limits of such assays
# [1] = biological target: HLA-A*02:02
# [2] = biological target: HLA-A*02:03
# [3] = biological target: HLA-A*02:06
# [4] = biological target: HLA-A*03:01
# [5] = biological target: HLA-A*11:01
# [6] = biological target: HLA-A*31:01
# [7] = biological target: HLA-A*33:01
# [8] = biological target: HLA-A*68:01
# [9] = source organism: Vaccinia virus WR
# [10] = source organism: SARS coronavirus Tor2
# [11] = source organism: Dengue virus 1 Brazil/97-11/1997
# [12] = source organism: Dengue virus 2 Jamaica/1409/1983
# [13] = source organism: Mammarenavirus juninense
# [14] = source organism: Lymphocytic choriomeningitis virus (strain WE)
# [15] = source organism: Mopeia Lassa virus reassortant 29
Sequence,"Kd [4, 9]","Kd [5, 9]","Kd [6, 9]","Kd [7, 9]","Kd [8, 9]",other results
ALVSDCASTI,–,–,–,–,–,"Kd [1, 9]: 94.2 nM; Kd [2, 9]: 52.1 nM; Kd [3, 9]: 240 nM"
LMANLAPHLL,–,–,–,–,–,"Kd [1, 10]: 0.228 nM; Kd [2, 10]: 1.46 nM; Kd [3, 10]: 115 nM"
YVHEGVSYEV,–,–,–,–,–,"Kd [1, 9]: 12.9 nM; Kd [2, 9]: 71 nM; Kd [3, 9]: 9.08 nM"
SQVNPLTLTA,–,–,–,–,–,"Kd [3, 11]: 167 nM"
TLFIDRGSI,–,–,–,–,–,"Kd [1, 9]: 2100 nM; Kd [2, 9]: 802 nM; Kd [3, 9]: ≥ 77100 nM"
TMLDVDLRPA,–,–,–,–,–,Kd ([3]; source organism: Dengue virus 1 Singapore/S275/1990): 16.9 nM
LLAIGCYSQV,–,–,–,–,–,"Kd [2, 12]: 8.28 nM"
GVVTTSGTYV,–,–,–,–,–,"Kd [3, 11]: 665 nM"
SLGLILLKIV,–,–,–,–,–,Kd ([2]; source organism: Dengue virus 4 Dominica/814669/1981): 14.7 nM
AMHTALTGA,–,–,–,–,–,"Kd [2, 12]: 15.1 nM"
WVSLKKTNDK,2090 nM,608 nM,≥ 32700 nM,≥ 70000 nM,≥ 45500 nM,–
GLTADARLL,–,–,–,–,–,Kd ([2]; source organism: Homo sapiens): 362 nM
AAMQRKLEK,–,–,–,–,–,"Kd [4, 10]: 7010 nM; Kd [5, 10]: 257 nM; Kd [6, 10]: ≥ 21200 nM; Kd [7, 10]: ≥ 77700 nM; Kd [8, 10]: ≥ 77700 nM"
DADPPIPYSR,≥ 70100 nM,16400 nM,10100 nM,2690 nM,509 nM,–
EIIFLKLFKK,88.2 nM,17.7 nM,20 nM,129 nM,5.36 nM,–
KSPLPSLEY,278 nM,228 nM,7390 nM,≥ 77700 nM,≥ 77700 nM,–
STCSAVTDR,≥ 31000 nM,31.2 nM,119 nM,1390 nM,55.1 nM,–
PLLCTLNKSH,–,–,–,–,–,"Kd [4, 13]: ≥ 70000 nM; Kd [5, 13]: ≥ 69700 nM; Kd [6, 13]: ≥ 70000 nM; Kd [7, 13]: ≥ 70000 nM; Kd [8, 13]: ≥ 70100 nM"
KTNDINVRRR,64.1 nM,1460 nM,17.9 nM,5470 nM,848 nM,–
LSKRERQLAK,1360 nM,1120 nM,1600 nM,≥ 57900 nM,5940 nM,–
SRILFAQEK,–,–,–,–,–,"Kd [4, 14]: 15700 nM; Kd [5, 14]: 773 nM; Kd [6, 14]: ≥ 38700 nM; Kd [7, 14]: ≥ 77700 nM; Kd [8, 14]: 7330 nM"

Sequence,"Kd [4, 9]","Kd [5, 9]","Kd [6, 9]","Kd [7, 9]","Kd [8, 9]",other results
TFKIDAVRYY,≥ 70100 nM,12100 nM,≥ 20700 nM,≥ 43400 nM,1430 nM,–
QTVDFTDCR,≥ 35500 nM,348 nM,722 nM,5810 nM,1.57 nM,–
SMTIREFPR,14800 nM,599 nM,0.164 nM,1.94 nM,200 nM,–
PLNEGVMAV,–,–,–,–,–,Kd ([2]; source organism: Dengue virus 3 Martinique/1243/1999): 21.5 nM
AQCFKMFYK,–,–,–,–,–,"Kd [4, 10]: 25.6 nM; Kd [5, 10]: 2.52 nM; Kd [6, 10]: 6.24 nM; Kd [7, 10]: 878 nM; Kd [8, 10]: 177 nM"
IANSNIIKNK,47.2 nM,39.5 nM,19900 nM,≥ 39300 nM,212 nM,–
SSNKDPITVY,≥ 70100 nM,1880 nM,≥ 50900 nM,≥ 70000 nM,≥ 42800 nM,–
KFLEFSNRVY,≥ 39800 nM,10100 nM,24.5 nM,≥ 70000 nM,≥ 68800 nM,–
VFTDISMSLY,8240 nM,2290 nM,11600 nM,6760 nM,2300 nM,–
SMLTNAISSR,505 nM,258 nM,117 nM,2330 nM,218 nM,–
AVLDDGIYRI,–,–,–,–,–,"Kd [3, 11]: 10.5 nM"
SVLCVKKFYK,1.14 nM,0.302 nM,0.785 nM,12.2 nM,1.01 nM,–
QMDSMEALEY,1710 nM,755 nM,≥ 70000 nM,≥ 70000 nM,11800 nM,–
LSPAHLINK,208 nM,39.4 nM,18600 nM,≥ 35800 nM,16300 nM,–
SMGFKVTTRR,97.2 nM,1050 nM,22.1 nM,747 nM,213 nM,–
NSQIFNIISY,1080 nM,5090 nM,1320 nM,10600 nM,441 nM,–
VIGLSGDSER,≥ 63700 nM,15900 nM,8890 nM,1180 nM,182 nM,–
GLFGKGGIV,–,–,–,–,–,"Kd [2, 12]: 11 nM"
LTKFVAAALH,–,–,–,–,–,"Kd [4, 15]: 16000 nM; Kd [5, 15]: 5660 nM; Kd [6, 15]: 694 nM; Kd [7, 15]: 5610 nM; Kd [8, 15]: 164 nM"
VSMTYLYNKY,15400 nM,96.5 nM,≥ 28900 nM,≥ 70000 nM,≥ 70200 nM,–
